From US20260124223A1, “CANCER IMMUNOTHERAPIES” (Northwestern University, priority 2022, published 2026)

Tests used:
[1] = biological target: mouse FcγRIV protein (his-tagged) (mouse); experiment: ratio of SPR binding to mouse FcγRIV against inhibitory mouse FcγRIIB
[2] = biological target: mouse FcγRIIB protein (his-tagged) (mouse) (UniProt P08101); experiment: SPR (Biacore T200), his-tagged receptor captured on anti-His CM5 chip, antibody injected
[3] = biological target: mouse FcγRIV protein (his-tagged) (mouse); experiment: as above
[4] = biological target: human FcγRIIB protein (his-tagged) (human) (UniProt P31994); experiment: as above
[5] = biological target: human FcγRIIIA F158 protein (his-tagged) (human) (UniProt P08637); experiment: as above
[6] = biological target: human FcγRIIIA V158 protein (his-tagged) (human) (UniProt P08637); experiment: as above
human FcγRIIIA V158 protein (his-tagged) (human), sequence (P08637 17-208 F176V limits assumed): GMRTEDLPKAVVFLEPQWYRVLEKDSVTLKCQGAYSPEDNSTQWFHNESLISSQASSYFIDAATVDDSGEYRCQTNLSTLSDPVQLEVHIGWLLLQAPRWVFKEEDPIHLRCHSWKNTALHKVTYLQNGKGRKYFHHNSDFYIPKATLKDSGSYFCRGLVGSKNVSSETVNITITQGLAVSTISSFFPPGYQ

mouse FcγRIV protein (his-tagged) (mouse), sequence (A0A0B4 entry or part of it limits assumed): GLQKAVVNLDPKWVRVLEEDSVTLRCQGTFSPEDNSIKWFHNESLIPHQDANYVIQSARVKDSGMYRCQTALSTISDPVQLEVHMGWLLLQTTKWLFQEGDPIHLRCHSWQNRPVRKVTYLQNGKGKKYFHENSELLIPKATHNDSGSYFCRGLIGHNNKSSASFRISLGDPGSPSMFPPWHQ
mouse FcγRIIB protein (his-tagged) (mouse), sequence (P08101 30-210 limits assumed): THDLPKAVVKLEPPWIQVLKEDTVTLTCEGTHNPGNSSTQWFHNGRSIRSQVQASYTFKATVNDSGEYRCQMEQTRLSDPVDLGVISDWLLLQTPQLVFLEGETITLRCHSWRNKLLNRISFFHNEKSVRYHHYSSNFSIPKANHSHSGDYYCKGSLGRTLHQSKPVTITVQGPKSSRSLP
human FcγRIIB protein (his-tagged) (human), sequence (P31994 43-217 limits assumed): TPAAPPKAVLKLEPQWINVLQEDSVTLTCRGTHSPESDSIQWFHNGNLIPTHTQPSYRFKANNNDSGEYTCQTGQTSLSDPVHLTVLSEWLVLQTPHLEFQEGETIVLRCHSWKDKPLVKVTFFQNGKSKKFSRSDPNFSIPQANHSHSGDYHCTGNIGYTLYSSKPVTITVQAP
human FcγRIIIA F158 protein (his-tagged) (human), sequence (P08637 17-208 limits assumed): as the sequence (P08637 17-208 F176V limits assumed) above, with V160F counted along it

Substance | A/I ratio (IV/IIB) [1] | Kd [2] | Kd [3] | Kd [4] | Kd [5] | Kd [6]
Fc-enhanced mouse reactive anti-CTLA4 antibody (clone 9D9, mIgG2b.DLE) (from UniProt P01867 1-335) | 4180 | 7110 nM | 1.7 nM |  |  | 
Fc-enhanced anti-human CTLA-4 antibody (hIgG1.DLE) (from UniProt P01857 1-330) |  |  |  | 3230 nM | 2.83 nM | 2.76 nM
anti-mouse CTLA-4 antibody, clone 9D9, mouse IgG2b (unmodified) | 95 | 5800 nM | 61.3 nM |  |  | 
